Source: PMC6698648, “A Fanci knockout mouse model reveals common and distinct functions for FANCI and FANCD2” (Nucleic Acids Research, 2019)

Molecular target: T1, Human RAD51 (human, UniProt Q06609 1-339)
T1 sequence (looked up): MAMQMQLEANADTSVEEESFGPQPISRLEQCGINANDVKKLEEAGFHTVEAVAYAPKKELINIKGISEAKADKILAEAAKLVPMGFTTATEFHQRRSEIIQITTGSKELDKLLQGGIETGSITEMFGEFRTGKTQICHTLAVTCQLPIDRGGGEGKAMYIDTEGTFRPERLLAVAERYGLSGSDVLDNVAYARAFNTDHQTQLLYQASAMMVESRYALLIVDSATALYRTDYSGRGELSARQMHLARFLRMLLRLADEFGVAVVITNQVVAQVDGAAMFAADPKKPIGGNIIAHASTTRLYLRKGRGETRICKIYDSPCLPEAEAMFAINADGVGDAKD
Test: cell-based or functional assay

B1: FANCI (natural protein, UniProt Q9NVI1 1-1328, looked up)
chain: MDQKILSLAAEKTADKLQEFLQTLREGDLTNLLQNQAVKGKVAGALLRAIFKGSPCSEEAGTLRRRKIYTCCIQLVESGDLQKEIASEIIGLLMLEAHHFPGPLLVELANEFISAVREGSLVNGKSLELLPIILTALATKKENLAYGKGVLSGEECKKQLINTLCSGRWDQQYVIQLTSMFKDVPLTAEEVEFVVEKALSMFSKMNLQEIPPLVYQLLVLSSKGSRKSVLEGIIAFFSALDKQHNEEQSGDELLDVVTVPSGELRHVEGTIILHIVFAIKLDYELGRELVKHLKVGQQGDSNNNLSPFSIALLLSVTRIQRFQDQVLDLLKTSVVKSFKDLQLLQGSKFLQNLVPHRSYVSTMILEVVKNSVHSWDHVTQGLVELGFILMDSYGPKKVLDGKTIETSPSLSRMPNQHACKLGANILLETFKIHEMIRQEILEQVLNRVVTRASSPISHFLDLLSNIVMYAPLVLQSCSSKVTEAFDYLSFLPLQTVQRLLKAVQPLLKVSMSMRDCLILVLRKAMFANQLDARKSAVAGFLLLLKNFKVLGSLSSSQCSQSLSVSQVHVDVHSHYNSVANETFCLEIMDSLRRCLSQQADVRLMLYEGFYDVLRRNSQLANSVMQTLLSQLKQFYEPKPDLLPPLKLEACILTQGDKISLQEPLDYLLCCIQHCLAWYKNTVIPLQQGEEEEEEEEAFYEDLDDILESITNRMIKSELEDFELDKSADFSQSTSIGIKNNICAFLVMGVCEVLIEYNFSISSFSKNRFEDILSLFMCYKKLSDILNEKAGKAKTKMANKTSDSLLSMKFVSSLLTALFRDSIQSHQESLSVLRSSNEFMRYAVNVALQKVQQLKETGHVSGPDGQNPEKIFQNLCDITRVLLWRYTSIPTSVEESGKKEKGKSISLLCLEGLQKIFSAVQQFYQPKIQQFLRALDVTDKEGEEREDADVSVTQRTAFQIRQFQRSLLNLLSSQEEDFNSKEALLLVTVLTSLSKLLEPSSPQFVQMLSWTSKICKENSREDALFCKSLMNLLFSLHVSYKSPVILLRDLSQDIHGHLGDIDQDVEVEKTNHFAIVNLRTAAPTVCLLVLSQAEKVLEEVDWLITKLKGQVSQETLSEEASSQATLPNQPVEKAIIMQLGTLLTFFHELVQTALPSGSCVDTLLKDLCKMYTTLTALVRYYLQVCQSSGGIPKNMEKLVKLSGSHLTPLCYSFISYVQNKSKSLNYTGEKKEKPAAVATAMARVLRETKPIPNLIFAIEQYEKFLIHLSKKSKVNLMQHMKLSTSRDFKIKGNILDMVLREDGEDENEEGTASEHGGQNKEPAKKKRKK
RAD51-mediated D-loop formation, RAD51 at 400 nM with added FANCI (up to 100 nM), fold activation relative to RAD51 alone: 8 fold
